Test results: article PMC9352680, “A comprehensive thermodynamic model for RNA binding by the Saccharomyces cerevisiae Pumilio protein PUF4”
Changes are numbered by the printed parent chain. Names may count otherwise.

T1: PUF4 RNA-binding domain (Saccharomyces cerevisiae, UniProt P25339 537-888)
T1 sequence: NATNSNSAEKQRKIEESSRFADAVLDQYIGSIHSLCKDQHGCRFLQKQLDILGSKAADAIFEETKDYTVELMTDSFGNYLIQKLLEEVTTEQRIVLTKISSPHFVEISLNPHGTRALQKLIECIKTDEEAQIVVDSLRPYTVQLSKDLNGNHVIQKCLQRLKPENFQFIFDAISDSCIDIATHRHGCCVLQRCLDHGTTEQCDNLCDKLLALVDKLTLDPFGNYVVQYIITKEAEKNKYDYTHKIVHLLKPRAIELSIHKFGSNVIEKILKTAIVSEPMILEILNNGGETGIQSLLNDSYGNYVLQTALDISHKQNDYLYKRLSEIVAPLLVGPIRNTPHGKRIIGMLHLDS

B1: Ie_S3_P5E.1_K5.1_C5.1_H5.1_A5.1_F5.1_[+9CCTCT]_T5.1 (ssRNA)
RNA: ACAAACUGUAUUAUUCCUCUAACAAAC
B2: Ie_S3_P5E.1_K5.1_C5.1_H5.1_A5.1_F5.1_[+8CCC]_T5.1 (ssRNA)
RNA: ACAAACUGUAUUAUCCCUAACAAAC
B3: Ie_S3_P5E.1_K5.1_C5.1_H5.1_A5.1_F5.1_[+9CTC]_T5.1 (ssRNA)
RNA: ACAAACUGUAUUAUUCUCAACAAAC
B4: Ie_S3_P5E.1_K5.1_C5.1_H5.1_A5.1_F5.1_[+9TCTC]_T5.1 (ssRNA)
RNA: ACAAACUGUAUUAUUUCUCAACAAAC
B5: Ie_S3_P5E.1_K5.1_C5.1_H5.1_A5.1_F5.1_[+10TCC]_T5.1 (ssRNA)
RNA: ACAAACUGUAUUAUUAUCCACAAAC
B6: Ie_S4_P3E.2_K3.1_C3.2_[+-2CCCTT]_H3.1_A3.1_F3.1_T3.2 (ssRNA)
RNA: UUUGACAACUGAUCGUUCUUUCUCCCCUUUUGUAUAUAUAUUCUUUCUCGAUCAGUUGUCUUU
B7: Ie_S3_P5E.1_K5.1_C5.1_H5.1_A5.1_F5.1_[+9CCC]_T5.1 (ssRNA)
RNA: ACAAACUGUAUUAUUCCCAACAAAC
B8: Ie_S3_P5E.1_K5.1_C5.1_H5.1_A5.1_F5.1_[+9TTC]_T5.1 (ssRNA)
RNA: ACAAACUGUAUUAUUUUCAACAAAC
B9: Ie_S3_P5E.1_K5.1_C5.1_H5.1_A5.1_F5.1_[+8TTCC]_T5.1 (ssRNA)
RNA: ACAAACUGUAUUAUUUCCUAACAAAC
B10: Ie_S4_P3E.2_K3.1_C3.2_[+-1CT]_H3.1_A3.1_F3.1_T3.2 (ssRNA)
RNA: UUUGACAACUGAUCGUUCUUUCUCUCUUGUAUAUAUAUUCUUUCUCGAUCAGUUGUCUUU
B11: Ie_S4_P3E.2_K3.1_C3.2_[+-1TT]_H3.1_A3.1_F3.1_T3.2 (ssRNA)
RNA: B10 RNA with C26U
B12: Ie_S4_P3E.2_K3.1_C3.2_[+-1TC]_H3.1_A3.1_F3.1_T3.2 (ssRNA)
RNA: B10 RNA with C26U, U27C
B13: Ie_S4_P3E.2_K3.1_C3.2_[+-2T]_H3.1_A3.1_F3.1_T3.2 (ssRNA)
RNA: UUUGACAACUGAUCGUUCUUUCUCUUUGUAUAUAUAUUCUUUCUCGAUCAGUUGUCUUU
B14: Ie_S4_P3E.2_K3.1_C3.2_[+-1C]_H3.1_A3.1_F3.1_T3.2 (ssRNA)
RNA: B13 RNA with U26C
B15: Ie_S3_P5E.1_K5.1_C5.1_H5.1_A5.1_F5.1_[+9CCT]_T5.1 (ssRNA)
RNA: ACAAACUGUAUUAUUCCUAACAAAC
B16: Ie_S4_P3E.2_K3.1_C3.2_[+-2TTCC]_H3.1_A3.1_F3.1_T3.2 (ssRNA)
RNA: UUUGACAACUGAUCGUUCUUUCUCUUCCUUGUAUAUAUAUUCUUUCUCGAUCAGUUGUCUUU
B17: Ie_S3_P5E.1_K5.1_C5.1_H5.1_A5.1_F5.1_[+8TTC]_T5.1 (ssRNA)
RNA: ACAAACUGUAUUAUUUCUAACAAAC
B18: Ie_S3_P5E.1_K5.1_C5.1_H5.1_A5.1_F5.1_[+8CTCTC]_T5.1 (ssRNA)
RNA: ACAAACUGUAUUAUCUCUCUAACAAAC
B19: Ie_S4_P3E.2_K3.1_C3.2_[+-2CCC]_H3.1_A3.1_F3.1_T3.2 (ssRNA)
RNA: UUUGACAACUGAUCGUUCUUUCUCCCCUUGUAUAUAUAUUCUUUCUCGAUCAGUUGUCUUU
B20: Ie_S4_P3E.2_K3.1_C3.2_[+-1CCC]_H3.1_A3.1_F3.1_T3.2 (ssRNA)
RNA: B19 RNA with C25U, U28C
B21: Ie_S4_P3E.2_K3.1_C3.2_[+-1CCT]_H3.1_A3.1_F3.1_T3.2 (ssRNA)
RNA: B19 RNA with C25U
B22: Ib_S2_P3E.1_K3.1_C3.1_H3.1_[T1G]_A3.1_[A6T]_F3.1_T3.1 (ssRNA)
RNA: UUUGAUUAAUAUGAUAUCGUUCUUUCUGGUAUUUAUUCUUUCUCGAUAUCAUAUUAAUCUUU
B23: Ib_S2_P3E.1_K3.1_C3.1_H3.1_[T1C]_A3.1_[A6G]_F3.1_T3.1 (ssRNA)
RNA: B22 RNA with G28C, U33G

These binders were tested against T1, PUF4 RNA-binding domain (assay: Mg; RNA-MaP; 20 mM Na-HEPES pH 7.4, 30 mM KOAc, 0.75 mM MgCl2, 0.1% Tween-20, 5% glycerol, 0.1 mg/mL BSA, 2 mM DTT; 25 C; 0.0125-409.6 nM protein). Conditions: tags: N-His6-TEV cleaved; C-SNAP kept, Cy3B-labelled; label: tethered on chip by stalled RNA polymerase.

Going from B1 to B2, the Kd rises from 20.7 nM to 37.5 nM (1.8-fold). The first binds more tightly here.

B3 and B4 are within 1.5-fold of each other in Kd: 23 nM for the first, 19.4 nM for the second.

First: B5
Second: B6
The Kd of the first is 6.7-fold higher: 5.94 nM for the first, 0.884 nM for the second.

B7 and B8 are within 1.5-fold of each other in Kd: 18.1 nM for the first, 19.8 nM for the second.

First: B9
Second: B10
The Kd of the first is 23-fold higher: 21.6 nM for the first, 0.942 nM for the second. The second binds more tightly here.

Going from B11 to B12, the Kd falls from 1.2 nM to 0.769 nM (1.6-fold).

B13 and B14 are within 1.5-fold of each other in Kd: 0.987 nM for the first, 1.07 nM for the second.

Compared with B15, B16 is 20-fold lower in Kd: 19.9 nM for the first, 1.01 nM for the second.

Compared with B17, B18 is 1.5-fold higher in Kd: 19.1 nM for the first, 29.1 nM for the second. The first binds more tightly here.

B19 and B20 are within 1.5-fold of each other in Kd: 0.858 nM for the first, 0.986 nM for the second.

Going from B21 to B22, the Kd rises from 0.625 nM to greater than 2300 nM. The first binds more tightly here.

Work on B23 yielded a Kd of 75.7 nM.
